Laboratory results from article doi:10.1101/589580.

Target: T1, endogenous ZO1 with N-terminal mNeonGreen (CRISPR knock-in, MDCK-II) (dog (endogenous in MDCK-II)), O97758
T1 chain: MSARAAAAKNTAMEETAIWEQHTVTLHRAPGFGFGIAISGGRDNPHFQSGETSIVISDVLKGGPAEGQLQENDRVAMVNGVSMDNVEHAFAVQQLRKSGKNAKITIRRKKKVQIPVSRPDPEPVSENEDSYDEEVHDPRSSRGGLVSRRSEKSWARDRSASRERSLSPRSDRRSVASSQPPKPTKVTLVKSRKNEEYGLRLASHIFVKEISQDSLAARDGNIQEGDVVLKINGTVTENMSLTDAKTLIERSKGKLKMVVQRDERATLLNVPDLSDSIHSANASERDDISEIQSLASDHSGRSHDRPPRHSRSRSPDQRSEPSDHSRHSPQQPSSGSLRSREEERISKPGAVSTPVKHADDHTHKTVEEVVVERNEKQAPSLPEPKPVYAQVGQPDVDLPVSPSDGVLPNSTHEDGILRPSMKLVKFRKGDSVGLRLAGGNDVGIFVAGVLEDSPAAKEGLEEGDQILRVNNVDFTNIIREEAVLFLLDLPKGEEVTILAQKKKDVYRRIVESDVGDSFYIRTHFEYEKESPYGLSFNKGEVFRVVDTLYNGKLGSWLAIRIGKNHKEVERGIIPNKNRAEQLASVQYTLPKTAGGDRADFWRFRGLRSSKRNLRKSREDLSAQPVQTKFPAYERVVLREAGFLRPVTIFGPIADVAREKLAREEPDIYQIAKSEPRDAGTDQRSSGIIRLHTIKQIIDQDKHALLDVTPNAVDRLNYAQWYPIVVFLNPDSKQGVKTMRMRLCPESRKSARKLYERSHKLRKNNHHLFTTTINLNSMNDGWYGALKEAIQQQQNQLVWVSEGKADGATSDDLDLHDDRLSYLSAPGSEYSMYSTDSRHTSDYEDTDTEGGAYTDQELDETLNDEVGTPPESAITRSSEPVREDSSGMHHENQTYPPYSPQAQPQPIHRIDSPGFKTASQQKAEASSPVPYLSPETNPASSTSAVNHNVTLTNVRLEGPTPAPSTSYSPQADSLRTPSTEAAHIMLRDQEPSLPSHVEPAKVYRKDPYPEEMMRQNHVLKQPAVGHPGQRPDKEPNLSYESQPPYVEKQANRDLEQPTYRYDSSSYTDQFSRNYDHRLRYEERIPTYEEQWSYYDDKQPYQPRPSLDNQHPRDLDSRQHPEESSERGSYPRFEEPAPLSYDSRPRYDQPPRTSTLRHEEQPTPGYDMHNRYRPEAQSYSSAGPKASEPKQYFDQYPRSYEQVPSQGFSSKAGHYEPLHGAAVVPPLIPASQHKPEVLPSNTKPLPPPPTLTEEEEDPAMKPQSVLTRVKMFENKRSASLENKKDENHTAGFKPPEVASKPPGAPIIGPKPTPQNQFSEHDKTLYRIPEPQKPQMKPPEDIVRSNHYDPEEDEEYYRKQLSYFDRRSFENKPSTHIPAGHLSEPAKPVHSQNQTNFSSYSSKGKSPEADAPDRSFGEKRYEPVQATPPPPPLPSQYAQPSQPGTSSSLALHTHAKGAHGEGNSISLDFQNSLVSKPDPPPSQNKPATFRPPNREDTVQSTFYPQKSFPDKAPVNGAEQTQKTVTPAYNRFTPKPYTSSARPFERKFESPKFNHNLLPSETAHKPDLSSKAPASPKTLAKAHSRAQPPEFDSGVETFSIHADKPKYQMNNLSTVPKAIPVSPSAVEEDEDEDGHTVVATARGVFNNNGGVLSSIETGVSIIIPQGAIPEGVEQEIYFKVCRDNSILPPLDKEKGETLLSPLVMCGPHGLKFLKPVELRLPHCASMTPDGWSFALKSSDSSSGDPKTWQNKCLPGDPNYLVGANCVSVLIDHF
Experiment: FCS molecular brightness
Settings: remark: other sources report otherwise

B1: endogenous ZO1 with N-terminal mNeonGreen (CRISPR knock-in, MDCK-II), O97758 1-1769 (natural protein)
chain: MSARAAAAKNTAMEETAIWEQHTVTLHRAPGFGFGIAISGGRDNPHFQSGETSIVISDVLKGGPAEGQLQENDRVAMVNGVSMDNVEHAFAVQQLRKSGKNAKITIRRKKKVQIPVSRPDPEPVSENEDSYDEEVHDPRSSRGGLVSRRSEKSWARDRSASRERSLSPRSDRRSVASSQPPKPTKVTLVKSRKNEEYGLRLASHIFVKEISQDSLAARDGNIQEGDVVLKINGTVTENMSLTDAKTLIERSKGKLKMVVQRDERATLLNVPDLSDSIHSANASERDDISEIQSLASDHSGRSHDRPPRHSRSRSPDQRSEPSDHSRHSPQQPSSGSLRSREEERISKPGAVSTPVKHADDHTHKTVEEVVVERNEKQAPSLPEPKPVYAQVGQPDVDLPVSPSDGVLPNSTHEDGILRPSMKLVKFRKGDSVGLRLAGGNDVGIFVAGVLEDSPAAKEGLEEGDQILRVNNVDFTNIIREEAVLFLLDLPKGEEVTILAQKKKDVYRRIVESDVGDSFYIRTHFEYEKESPYGLSFNKGEVFRVVDTLYNGKLGSWLAIRIGKNHKEVERGIIPNKNRAEQLASVQYTLPKTAGGDRADFWRFRGLRSSKRNLRKSREDLSAQPVQTKFPAYERVVLREAGFLRPVTIFGPIADVAREKLAREEPDIYQIAKSEPRDAGTDQRSSGIIRLHTIKQIIDQDKHALLDVTPNAVDRLNYAQWYPIVVFLNPDSKQGVKTMRMRLCPESRKSARKLYERSHKLRKNNHHLFTTTINLNSMNDGWYGALKEAIQQQQNQLVWVSEGKADGATSDDLDLHDDRLSYLSAPGSEYSMYSTDSRHTSDYEDTDTEGGAYTDQELDETLNDEVGTPPESAITRSSEPVREDSSGMHHENQTYPPYSPQAQPQPIHRIDSPGFKTASQQKAEASSPVPYLSPETNPASSTSAVNHNVTLTNVRLEGPTPAPSTSYSPQADSLRTPSTEAAHIMLRDQEPSLPSHVEPAKVYRKDPYPEEMMRQNHVLKQPAVGHPGQRPDKEPNLSYESQPPYVEKQANRDLEQPTYRYDSSSYTDQFSRNYDHRLRYEERIPTYEEQWSYYDDKQPYQPRPSLDNQHPRDLDSRQHPEESSERGSYPRFEEPAPLSYDSRPRYDQPPRTSTLRHEEQPTPGYDMHNRYRPEAQSYSSAGPKASEPKQYFDQYPRSYEQVPSQGFSSKAGHYEPLHGAAVVPPLIPASQHKPEVLPSNTKPLPPPPTLTEEEEDPAMKPQSVLTRVKMFENKRSASLENKKDENHTAGFKPPEVASKPPGAPIIGPKPTPQNQFSEHDKTLYRIPEPQKPQMKPPEDIVRSNHYDPEEDEEYYRKQLSYFDRRSFENKPSTHIPAGHLSEPAKPVHSQNQTNFSSYSSKGKSPEADAPDRSFGEKRYEPVQATPPPPPLPSQYAQPSQPGTSSSLALHTHAKGAHGEGNSISLDFQNSLVSKPDPPPSQNKPATFRPPNREDTVQSTFYPQKSFPDKAPVNGAEQTQKTVTPAYNRFTPKPYTSSARPFERKFESPKFNHNLLPSETAHKPDLSSKAPASPKTLAKAHSRAQPPEFDSGVETFSIHADKPKYQMNNLSTVPKAIPVSPSAVEEDEDEDGHTVVATARGVFNNNGGVLSSIETGVSIIIPQGAIPEGVEQEIYFKVCRDNSILPPLDKEKGETLLSPLVMCGPHGLKFLKPVELRLPHCASMTPDGWSFALKSSDSSSGDPKTWQNKCLPGDPNYLVGANCVSVLIDHF
Q: B1 was tested. Which stoichiometry N did it give?
A: The stoichiometry N was 5.
